Assay results as given in publication PMC3089470 (Nucleic Acids Research, 2011).
Where a chain is given by its changes, count along the chain named.

How the values were obtained:
Assay in all cases: pull-down
[1] = biological target: purified recombinant MRN complex (Mre11:Rad50:NBS1) (UniProt P49959;Q92878;O60934)
[2] = biological target: T1, NBS1A with the mutation R215W (UniProt O60934 1-221, R215W)
T1 sequence: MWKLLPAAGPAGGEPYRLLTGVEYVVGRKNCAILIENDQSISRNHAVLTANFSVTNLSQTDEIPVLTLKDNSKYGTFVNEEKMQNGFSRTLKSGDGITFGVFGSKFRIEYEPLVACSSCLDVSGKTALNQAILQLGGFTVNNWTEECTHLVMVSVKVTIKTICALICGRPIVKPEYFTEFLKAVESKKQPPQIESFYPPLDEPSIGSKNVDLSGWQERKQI

[3] = biological target: T2, GST-tagged NBS1 fragment NBS1A (1-221) (UniProt O60934 1-221)
T2 sequence: T1 sequence with W215R

[4] = biological target: T3, NBS1A with the mutation I171V (UniProt O60934 1-221, I171V)
T3 sequence: T1 sequence with I171V, W215R

Measured: binding result

Sequence of purified recombinant MRN complex (Mre11:Rad50:NBS1) (P49959 whole entry, chain 1 of 2): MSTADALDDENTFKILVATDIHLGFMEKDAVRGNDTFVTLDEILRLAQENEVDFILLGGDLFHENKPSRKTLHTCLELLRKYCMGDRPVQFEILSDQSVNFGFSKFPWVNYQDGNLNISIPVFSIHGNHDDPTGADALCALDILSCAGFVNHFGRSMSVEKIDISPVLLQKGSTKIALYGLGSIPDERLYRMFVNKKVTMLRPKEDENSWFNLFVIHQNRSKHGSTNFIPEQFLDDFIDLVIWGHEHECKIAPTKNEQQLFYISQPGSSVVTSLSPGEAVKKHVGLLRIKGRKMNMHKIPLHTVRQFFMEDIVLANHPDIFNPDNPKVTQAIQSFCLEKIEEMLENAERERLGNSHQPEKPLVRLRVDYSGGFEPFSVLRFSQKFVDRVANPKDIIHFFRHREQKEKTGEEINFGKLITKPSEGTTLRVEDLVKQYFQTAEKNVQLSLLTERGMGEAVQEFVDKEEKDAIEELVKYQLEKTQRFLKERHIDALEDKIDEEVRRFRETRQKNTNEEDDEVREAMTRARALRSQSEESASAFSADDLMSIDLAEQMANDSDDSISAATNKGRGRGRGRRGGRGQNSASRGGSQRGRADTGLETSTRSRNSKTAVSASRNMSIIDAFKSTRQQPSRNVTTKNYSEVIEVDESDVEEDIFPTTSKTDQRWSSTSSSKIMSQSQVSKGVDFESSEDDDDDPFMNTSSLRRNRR
Sequence of purified recombinant MRN complex (Mre11:Rad50:NBS1) (Q92878 whole entry, chain 2 of 2): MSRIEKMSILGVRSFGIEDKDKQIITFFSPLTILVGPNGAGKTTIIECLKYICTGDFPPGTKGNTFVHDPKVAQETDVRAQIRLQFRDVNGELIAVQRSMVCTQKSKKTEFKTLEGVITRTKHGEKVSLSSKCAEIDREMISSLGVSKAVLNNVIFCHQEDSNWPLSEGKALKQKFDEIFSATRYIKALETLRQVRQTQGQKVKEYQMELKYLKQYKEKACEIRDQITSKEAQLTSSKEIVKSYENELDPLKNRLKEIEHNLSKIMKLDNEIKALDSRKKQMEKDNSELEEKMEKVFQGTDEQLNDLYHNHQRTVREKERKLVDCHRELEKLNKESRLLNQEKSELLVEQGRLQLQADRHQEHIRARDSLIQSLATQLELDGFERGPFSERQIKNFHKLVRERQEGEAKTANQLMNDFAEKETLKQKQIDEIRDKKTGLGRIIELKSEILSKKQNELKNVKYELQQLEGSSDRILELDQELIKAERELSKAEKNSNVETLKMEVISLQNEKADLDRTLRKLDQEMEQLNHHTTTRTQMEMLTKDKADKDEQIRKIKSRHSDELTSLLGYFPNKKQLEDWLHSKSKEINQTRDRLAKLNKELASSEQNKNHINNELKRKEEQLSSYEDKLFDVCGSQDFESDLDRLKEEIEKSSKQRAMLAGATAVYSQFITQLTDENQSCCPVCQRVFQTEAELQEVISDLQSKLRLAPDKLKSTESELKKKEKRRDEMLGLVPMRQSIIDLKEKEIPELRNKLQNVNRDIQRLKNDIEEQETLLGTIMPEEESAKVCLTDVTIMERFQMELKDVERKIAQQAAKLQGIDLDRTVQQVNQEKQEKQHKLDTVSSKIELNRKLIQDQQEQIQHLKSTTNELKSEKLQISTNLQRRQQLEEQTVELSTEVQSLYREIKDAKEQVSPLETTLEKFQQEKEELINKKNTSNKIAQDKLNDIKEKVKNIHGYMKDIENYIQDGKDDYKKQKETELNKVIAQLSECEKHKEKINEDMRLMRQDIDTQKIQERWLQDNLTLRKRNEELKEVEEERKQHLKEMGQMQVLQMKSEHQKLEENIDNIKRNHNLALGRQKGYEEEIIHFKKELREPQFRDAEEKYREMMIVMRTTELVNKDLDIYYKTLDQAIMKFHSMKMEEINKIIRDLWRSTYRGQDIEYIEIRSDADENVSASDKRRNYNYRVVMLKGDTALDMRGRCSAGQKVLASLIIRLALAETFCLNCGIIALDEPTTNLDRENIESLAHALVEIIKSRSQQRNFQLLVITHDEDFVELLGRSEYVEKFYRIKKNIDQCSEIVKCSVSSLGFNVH

B1: hSSB1, full-length recombinant, His-tagged (natural protein)
chain: MTTETFVKDIKPGLKNLNLIFIVLETGRVTKTKDGHEVRTCKVADKTGSINISVWDDVGNLIQPGDIIRLTKGYASVFKGCLTLYTGRGGDLQKIGEFCMVYSEVPNFSEPNPEYSTQQAPNKAVQNDSNPSASQPTTGPSAASPASENQNGNGLSAPPGPGGGPHPPHTPSHPPSTRITRSQPNHTPAGPPGPSSNPVSNGKETRRSSKR
binds: all assays above
